The target of test [1] is nucleosome core particle carrying a methyllysine analogue of histone H3K9 (H3Kc9me3) (Xenopus laevis). As to the kind of experiment: BLI. On the technique in general: In BLI a coated tip is dipped into the sample, and binding shifts an interference pattern.
Test [2] concerns the target BAH domain of human TNRC18 (amino acids 2785–2968) (human) (UniProt O15417). As to the kind of experiment: ITC. For orientation: Isothermal titration calorimetry measures the heat released or taken up as one component is titrated into another.
For test [3], the target named is TNRC18 BAH domain, 2785-2968 (UniProt O15417). As to the kind of experiment: isothermal titration calorimetry. The following applies: reference: H3(1–22)K9me3 peptide; sites T11.
For test [4], the target named is T1, amino acids 718–792 of TNRC18 (Sin3-interaction motif of TNRC18) (human, UniProt O15417 718-792).
T1 sequence (peptide, looked up): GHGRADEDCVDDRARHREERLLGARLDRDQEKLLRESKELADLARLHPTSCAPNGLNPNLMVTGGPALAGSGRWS
Briefly: ITC.

Chain of BAH domain of human TNRC18 (amino acids 2785–2968) (human) (O15417 2785-2968): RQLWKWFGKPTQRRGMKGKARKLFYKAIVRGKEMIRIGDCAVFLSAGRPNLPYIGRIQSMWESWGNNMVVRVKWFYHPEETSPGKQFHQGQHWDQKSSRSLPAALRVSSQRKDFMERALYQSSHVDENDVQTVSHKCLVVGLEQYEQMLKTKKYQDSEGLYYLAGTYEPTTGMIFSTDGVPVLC

As for “BAH domain of human TNRC18 (amino acids 2785–2968) (from UniProt O15417 2785-2968) (domain or fragment)”, in test [1], the Kd came out at 0.0188 µM. H3K9me2 peptide registered a dissociation constant Kd in test [2] of 252 µM. For the molecule “histone H3 1-22 (from UniProt P68431) H3(1–22)K9me3 T11ph peptide”, the “binding against the reference” value in test [3] is recorded as “same”.

B1: PAH domain of Sin3 (domain or fragment)
chain: QRLKVEDALSYLDQVKLQFGSQPQVYNDFLDIMKEFKSQSIDTPGVISRVSQLFKGHPDLIMGFNTFLPPG
B1 gave a Kd in test [4] of 104 µM.

As a reminder, the Kd is the free concentration of one partner at which half of the binding sites on the other are occupied at equilibrium, for simple one-to-one binding.

Values taken from PMC11000523 (Nature, 2023).
